Measured values as given in patent publication US5405946A, “Recombinant protein S variants deficient in C4BP binding activity, compositions and therapeutic methods” (The Scripps Research Institute, priority 1992, dated 1995).
Blank lines part the entries; values can stand above or below the molecule they belong to.

Key:
thrombin = molecular target: T1, thrombin (Homo sapiens, UniProt P00734); assay: APC cofactor clotting assay after thrombin-Sepharose treatment of PS variants; assay type: biochemical; conditions: for Clotting Time After Treatment: after thrombin treatment, without protein S 72 ± 2 seconds
T1 construct: maintained with 1/20 vol (50 ul) of thrombin-Sepharose for 1 hour at 37C
Procedure: (§1) An activated partial thromboplastin time clotting assay, using PS- and C4BP-depleted plasma, cephalin-kaolin reagent (Boehringer Mannhein, Indianapolis, Ind.), activated protein C (APC) and increasing amounts of recombinant PS variants was performed as described by Chang et al., Thromb. Haemost., 67:526-532 (1992). Briefly, to 50 ul PS and C4BP-depleted plasma (prepared as described by Koedam et al., J. Clin. Invest., 82:1236-1243 (1988)) was added 50 ul cephalin-kaolin reagent, 25 ul APC (Koedam et al., ibid) at 5 ug/ml and 15 to 45 ul recombinant PS variants (0-4 ug/ml) diluted in Michaelis buffer (28.5 mM sodium acetate, 28.5 mM sodium barbital and 116 mM NaCl, pH 7.35) and maintained for 3 minutes at 37C. Clotting was initiated by addition of 50 ul of 25 mM CaCl2 and the clotting time was measured in an Amelung-Coagulometer KC10.
(§2) The ability of the variants to serve as a cofactor for APC was tested in a clotting assay. The clotting assay was performed as described in Example 2D. To examine the effects of thrombin on recombinant PS variants APC cofactor activity, one ml of purified recombinant PS variants listed above and prepared in Example 1D (4-40 ug/ml) was maintained with 1/20 vol (50 ul) of thrombin-Sepharose for 1 hour at 37C. in 50 mM Tris-HCl pH 7.5 containing […]. Thrombin-Sepharose was removed by centrifugation. Supernatants containing the thrombin-treated PS were stored at -20C. until used.
(§3) The PS-dependent prolongation of the clotting time was measured in an activated partial thromboplastin time system using PS and C4BP depleted plasma, APC and cephalin-kaolin reagent as described in Example 2D. Increasing amounts of recombinant PS or the triple variant treated without or with thrombin were added. Clotting was initiated by the addition of CaCl2 and the clotting time was measured. The results are presented as the means of duplicate values.

[1] = molecular target: activated protein C (APC) (Homo sapiens, UniProt P04070); assay: Activated partial thromboplastin time clotting assay, APC cofactor activity in PS- and C4BP-depleted plasma; assay type: biochemical
Procedure: as §1, §2, §3

[2] = concentration 2.38 ug/ml, without protein S 72 ± 2 seconds
[3] = concentration 0.60 ug/ml, without protein S 72 ± 2 seconds
[4] = concentration 1.12 ug/ml, without protein S 72 ± 2 seconds

activated protein C (APC), sequence (P04070 212-461 limits assumed): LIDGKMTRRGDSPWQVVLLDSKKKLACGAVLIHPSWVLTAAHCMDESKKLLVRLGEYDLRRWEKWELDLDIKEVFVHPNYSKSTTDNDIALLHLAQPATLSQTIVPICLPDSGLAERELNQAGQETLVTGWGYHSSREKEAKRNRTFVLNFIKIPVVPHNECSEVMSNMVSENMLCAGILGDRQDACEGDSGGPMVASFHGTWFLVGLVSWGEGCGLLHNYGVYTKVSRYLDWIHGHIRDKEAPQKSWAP
activated protein C (APC), sequence (P04070 43-197 limits assumed): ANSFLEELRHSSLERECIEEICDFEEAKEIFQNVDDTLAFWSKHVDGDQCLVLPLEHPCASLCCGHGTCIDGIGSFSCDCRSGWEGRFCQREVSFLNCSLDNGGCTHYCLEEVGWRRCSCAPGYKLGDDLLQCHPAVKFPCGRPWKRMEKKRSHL

- Clotting Time After Treatment (thrombin; concentration 2.38 ug/ml): 70 s
- APC cofactor activity after treatment with thrombin (thrombin; thrombin-Sepharose 1 hour at 37C): significantly decreased
- Clotting Time [1, 2]: 91 s
- Clotting Time ([1]; final conc. 2.4 ug/ml, basal clotting 80): 116 s
Molecule: rPS wild-type: recombinant wild-type full length human protein S expressed in C127I cells [reference compound]

- Clotting Time After Treatment (thrombin; concentration 2.38 ug/ml): 75 s
- Clotting Time [1, 2]: 90 s
B2: R60L variant: recombinant protein S single variant in thrombin-sensitive domain, arginine 60 replaced by leucine (protein, UniProt P07225 42-676, looked up, variant R60L)
Vitamin K-dependent protein S: ANSLLEETKQGNLERECIEELCNKEEAREVFENDPETDYFYPKYLVCLRSFQTGLFTAALQSTNAYPDLRSCVNAIPDQCSPLPCNEDGYMSCKDGKASFTCTCKPGWQGEKCEFDINECKDPSNINGGCSQICDNTPGSYHCSCKNGFVMLSNKKDCKDVDECSLKPSICGTAVCKNIPGDFECECPEGYRYNLKSKSCEDIDECSENMCAQLCVNYPGGYTCYCDGKKGFKLAQDQKSCEVVSVCLPLNLDTKYELLYLAEQFAGVVLYLKFRLPEISRFSAEFDFRTYDSEGVILYAESIDHSAWLLIALRGGKIEVQLKNEHTSKITTGGDVINNGLWNMVSVEELEHSISIKIAKEAVMDINKPGPLFKPENGLLETKVYFAGFPRKVESELIKPINPRLDGCIRSWNLMKQGASGIKEIIQEKQNKHCLVTVEKGSYYPGSGIAQFHIDYNNVSSAEGWHVNVTLNIRPSTGTGVMLALVSGNNTVPFAVSLVDSTSEKSQDILLSVENTVIYRIQALSLCSDQQSHLEFRVNRNNLELSTPLKIETISHEDLQRQLAVLDKAMKAKVATYLGGLPDVPFSATPVNAFYNGCMEVNINGVQLDLDEAISKHNDIRAHSCPSVWKKTKNS

- Clotting Time After Treatment (thrombin; concentration 0.60 ug/ml): 72 s
- Clotting Time [1, 3]: 79 s
B4: R60L/R70I variant: recombinant protein S double variant in thrombin-sensitive domain (protein, UniProt P07225 42-676, looked up, variant R60L R70I)
Vitamin K-dependent protein S: ANSLLEETKQGNLERECIEELCNKEEAREVFENDPETDYFYPKYLVCLRSFQTGLFTAALQSTNAYPDLISCVNAIPDQCSPLPCNEDGYMSCKDGKASFTCTCKPGWQGEKCEFDINECKDPSNINGGCSQICDNTPGSYHCSCKNGFVMLSNKKDCKDVDECSLKPSICGTAVCKNIPGDFECECPEGYRYNLKSKSCEDIDECSENMCAQLCVNYPGGYTCYCDGKKGFKLAQDQKSCEVVSVCLPLNLDTKYELLYLAEQFAGVVLYLKFRLPEISRFSAEFDFRTYDSEGVILYAESIDHSAWLLIALRGGKIEVQLKNEHTSKITTGGDVINNGLWNMVSVEELEHSISIKIAKEAVMDINKPGPLFKPENGLLETKVYFAGFPRKVESELIKPINPRLDGCIRSWNLMKQGASGIKEIIQEKQNKHCLVTVEKGSYYPGSGIAQFHIDYNNVSSAEGWHVNVTLNIRPSTGTGVMLALVSGNNTVPFAVSLVDSTSEKSQDILLSVENTVIYRIQALSLCSDQQSHLEFRVNRNNLELSTPLKIETISHEDLQRQLAVLDKAMKAKVATYLGGLPDVPFSATPVNAFYNGCMEVNINGVQLDLDEAISKHNDIRAHSCPSVWKKTKNS

- Clotting Time After Treatment (thrombin; concentration 0.60 ug/ml): 75 s
- Clotting Time [1, 3]: 79 s
B6: R70I variant: recombinant protein S single variant in thrombin-sensitive domain, arginine 70 replaced by isoleucine (protein, UniProt P07225 42-676, looked up, variant R70I)
Vitamin K-dependent protein S: ANSLLEETKQGNLERECIEELCNKEEAREVFENDPETDYFYPKYLVCLRSFQTGLFTAARQSTNAYPDLISCVNAIPDQCSPLPCNEDGYMSCKDGKASFTCTCKPGWQGEKCEFDINECKDPSNINGGCSQICDNTPGSYHCSCKNGFVMLSNKKDCKDVDECSLKPSICGTAVCKNIPGDFECECPEGYRYNLKSKSCEDIDECSENMCAQLCVNYPGGYTCYCDGKKGFKLAQDQKSCEVVSVCLPLNLDTKYELLYLAEQFAGVVLYLKFRLPEISRFSAEFDFRTYDSEGVILYAESIDHSAWLLIALRGGKIEVQLKNEHTSKITTGGDVINNGLWNMVSVEELEHSISIKIAKEAVMDINKPGPLFKPENGLLETKVYFAGFPRKVESELIKPINPRLDGCIRSWNLMKQGASGIKEIIQEKQNKHCLVTVEKGSYYPGSGIAQFHIDYNNVSSAEGWHVNVTLNIRPSTGTGVMLALVSGNNTVPFAVSLVDSTSEKSQDILLSVENTVIYRIQALSLCSDQQSHLEFRVNRNNLELSTPLKIETISHEDLQRQLAVLDKAMKAKVATYLGGLPDVPFSATPVNAFYNGCMEVNINGVQLDLDEAISKHNDIRAHSCPSVWKKTKNS

Second part, the molecule before the results:

B1: R49L variant: recombinant protein S single variant in thrombin-sensitive domain, arginine 49 replaced by leucine (protein, UniProt P07225 42-676, looked up, variant R49L)
Vitamin K-dependent protein S: ANSLLEETKQGNLERECIEELCNKEEAREVFENDPETDYFYPKYLVCLLSFQTGLFTAARQSTNAYPDLRSCVNAIPDQCSPLPCNEDGYMSCKDGKASFTCTCKPGWQGEKCEFDINECKDPSNINGGCSQICDNTPGSYHCSCKNGFVMLSNKKDCKDVDECSLKPSICGTAVCKNIPGDFECECPEGYRYNLKSKSCEDIDECSENMCAQLCVNYPGGYTCYCDGKKGFKLAQDQKSCEVVSVCLPLNLDTKYELLYLAEQFAGVVLYLKFRLPEISRFSAEFDFRTYDSEGVILYAESIDHSAWLLIALRGGKIEVQLKNEHTSKITTGGDVINNGLWNMVSVEELEHSISIKIAKEAVMDINKPGPLFKPENGLLETKVYFAGFPRKVESELIKPINPRLDGCIRSWNLMKQGASGIKEIIQEKQNKHCLVTVEKGSYYPGSGIAQFHIDYNNVSSAEGWHVNVTLNIRPSTGTGVMLALVSGNNTVPFAVSLVDSTSEKSQDILLSVENTVIYRIQALSLCSDQQSHLEFRVNRNNLELSTPLKIETISHEDLQRQLAVLDKAMKAKVATYLGGLPDVPFSATPVNAFYNGCMEVNINGVQLDLDEAISKHNDIRAHSCPSVWKKTKNS
- Clotting Time After Treatment (thrombin; concentration 0.60 ug/ml): 72 s
- Clotting Time [1, 3]: 80 s

B3: R49L/R70I variant: recombinant protein S double variant in thrombin-sensitive domain (protein, UniProt P07225 42-676, looked up, variant R49L R70I)
Vitamin K-dependent protein S: ANSLLEETKQGNLERECIEELCNKEEAREVFENDPETDYFYPKYLVCLLSFQTGLFTAARQSTNAYPDLISCVNAIPDQCSPLPCNEDGYMSCKDGKASFTCTCKPGWQGEKCEFDINECKDPSNINGGCSQICDNTPGSYHCSCKNGFVMLSNKKDCKDVDECSLKPSICGTAVCKNIPGDFECECPEGYRYNLKSKSCEDIDECSENMCAQLCVNYPGGYTCYCDGKKGFKLAQDQKSCEVVSVCLPLNLDTKYELLYLAEQFAGVVLYLKFRLPEISRFSAEFDFRTYDSEGVILYAESIDHSAWLLIALRGGKIEVQLKNEHTSKITTGGDVINNGLWNMVSVEELEHSISIKIAKEAVMDINKPGPLFKPENGLLETKVYFAGFPRKVESELIKPINPRLDGCIRSWNLMKQGASGIKEIIQEKQNKHCLVTVEKGSYYPGSGIAQFHIDYNNVSSAEGWHVNVTLNIRPSTGTGVMLALVSGNNTVPFAVSLVDSTSEKSQDILLSVENTVIYRIQALSLCSDQQSHLEFRVNRNNLELSTPLKIETISHEDLQRQLAVLDKAMKAKVATYLGGLPDVPFSATPVNAFYNGCMEVNINGVQLDLDEAISKHNDIRAHSCPSVWKKTKNS
- Clotting Time After Treatment (thrombin; concentration 1.12 ug/ml): 80 s
- Clotting Time [1, 4]: 86 s

B5: R49L/R60L variant: recombinant protein S double variant in thrombin-sensitive domain (protein, UniProt P07225 42-676, looked up, variant R49L R60L)
Vitamin K-dependent protein S: ANSLLEETKQGNLERECIEELCNKEEAREVFENDPETDYFYPKYLVCLLSFQTGLFTAALQSTNAYPDLRSCVNAIPDQCSPLPCNEDGYMSCKDGKASFTCTCKPGWQGEKCEFDINECKDPSNINGGCSQICDNTPGSYHCSCKNGFVMLSNKKDCKDVDECSLKPSICGTAVCKNIPGDFECECPEGYRYNLKSKSCEDIDECSENMCAQLCVNYPGGYTCYCDGKKGFKLAQDQKSCEVVSVCLPLNLDTKYELLYLAEQFAGVVLYLKFRLPEISRFSAEFDFRTYDSEGVILYAESIDHSAWLLIALRGGKIEVQLKNEHTSKITTGGDVINNGLWNMVSVEELEHSISIKIAKEAVMDINKPGPLFKPENGLLETKVYFAGFPRKVESELIKPINPRLDGCIRSWNLMKQGASGIKEIIQEKQNKHCLVTVEKGSYYPGSGIAQFHIDYNNVSSAEGWHVNVTLNIRPSTGTGVMLALVSGNNTVPFAVSLVDSTSEKSQDILLSVENTVIYRIQALSLCSDQQSHLEFRVNRNNLELSTPLKIETISHEDLQRQLAVLDKAMKAKVATYLGGLPDVPFSATPVNAFYNGCMEVNINGVQLDLDEAISKHNDIRAHSCPSVWKKTKNS
- Clotting Time After Treatment (thrombin; concentration 1.12 ug/ml): 80 s
- Clotting Time [1, 4]: 88 s
